Experiment [1] concerns the target T1, CD20-biotin (Miltenyi Biotec) (UniProt P11836 142-188, limits assumed, biotin (site not stated)).
T1 construct: Bought staining reagent, 0.1 ug/sample, detected with streptavidin conjugate; also called recombinant CD20; CD20 biotin reagent
T1 chain (looked up): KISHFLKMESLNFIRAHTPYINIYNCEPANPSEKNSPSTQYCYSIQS
The experiment in a line: flow cytometry, CAR T cells stained with CD19-Fc and CD20-biotin. As to the method: (§1) Cells were washed twice and resuspended in 200 ul Staining Buffer before quantitative analysis by flow cytometry.
A general note: Flow cytometry measures light scatter and fluorescence of single cells or particles in a stream.

In experiment [2] the target is T2, CD19-Fc (R&D Biosystems) (UniProt P15391 20-291).
T2 construct: Bought staining reagent, 1 ug/sample; also called recombinant CD19; not shown: Fc part of the bought reagent (detected with goat anti-human Fc-gamma)
T2 sequence (looked up): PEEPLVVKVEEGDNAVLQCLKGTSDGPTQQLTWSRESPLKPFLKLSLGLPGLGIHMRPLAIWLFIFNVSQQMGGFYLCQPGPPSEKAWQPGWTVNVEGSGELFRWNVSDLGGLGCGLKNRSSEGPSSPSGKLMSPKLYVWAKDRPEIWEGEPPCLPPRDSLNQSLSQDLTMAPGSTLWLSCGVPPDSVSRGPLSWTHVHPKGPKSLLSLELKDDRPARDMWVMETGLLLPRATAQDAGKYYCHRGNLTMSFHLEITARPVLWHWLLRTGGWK
The description is as above. As to the method: as §1

B1: CAR LTG2200 (LP-2200-CD8 TM-41BB-CD3zeta) (other)
chain: QVQLQQSGPGLVKPSQTLSLTCAISGDSVSSNSAAWNWIRQSPSRGLEWLGRTYYRSKWYNDYAVSVKSRITINPDTSKNQFSLQLNSVTPEDTAVYYCAREVTGDLEDAFDIWGQGTMVTVSSGGGGSGGGGSGGGGSDIQMTQSPSSLSASVGDRVTITCRASQTIWSYLNWYQQRPGKAPNLLIYAASSLQSGVPSRFSGRGSGTDFTLTISSLQAEDFATYYCQQSYSIPQTFGQGTKLEIKAAATTTPAPRPPTPAPTIASQPLSLRPEACRPAAGGAVHTRGLDFACDIYIWAPLAGTCGVLLLSLVITLYCKRGRKKLLYIFKQPFMRPVQTTQEEDGCSCRFPEEEEGGCELRVKFSRSADAPAYQQGQNQLYNELNLGRREEYDVLDKRRGRDPEMGGKPRRKNPQEGLYNELQKDKMAEAYSEIGMKGERRRGKGHDGLYQGLSTATKDTYDALHMQALPPR
notes: Chimeric antigen receptor with the m971 anti-CD22 scFv on primary human T cells; The entry includes the leader peptide; also called 22-BBz; CAR22 LTG2200
With B1, the binding result in experiment [1] is given as “no binding (tested: 0.1 ug/sample)”; in experiment [2], “no binding (tested: 1 ug/sample)”.
